Substitutions are numbered along the chain they refer to. Names and notes keep the numbering of the source. Each block holds one molecule with its values, some of them ahead of it.
Tests used:
[1] = target: T1, Gloeobacter rhodopsin (GR) (Gloeobacter violaceus, UniProt Q7NP59); assay: X-ray crystal structure, […] A; type: binding; conditions: covalent, protonated Schiff base at Lys257; dark state; bicelle crystals, pH 3.4, 100 K
T1 construct: gene gll0198; wild type, C-terminal 6xHis tag, expressed in E. coli C43(DE3) with added retinal; 33 kDa; monomer at pH 3.0, pentamer at pH 8.0 in DDM

[2] = target: Mastigocladopsis repens halorhodopsin (Mastigocladopsis repens); assay: not stated; unpublished observation of the authors
[3] = target: the molecule itself; assay: SEC; Superdex 200 10/300 GL; 20 mM Tris-HCl pH 8.0, 300 mM NaCl, 0.04% DDM
[4] = target: the molecule itself; assay: DEER spectroscopy; Q-band, 80 K, 20% deuterated glycerol, GR-67R1 in detergent micelles at pH 8.0; distances between spin labels of protomers

Molecule: CC1=C(/C=C/C(C)=C/C=C/C(C)=C/C=O)C(C)(C)CCC1 [all-trans-retinal]
X-ray crystal structure, 2.0 A [1]: the all-trans-retinal chromophore is covalently bound to the opsin protein moiety via a Schiff base

stoichiometry N [2]: 3
Molecule: Mastigocladopsis repens halorhodopsin (natural protein)

B1: Gloeobacter rhodopsin (natural protein, Gloeobacter violaceus PCC 7421)
chain: MLMTVFSSAPELALLGSTFAQVDPSNLSVSDSLTYGQFNLVYNAFSFAIAAMFASALFFFSAQALVGQRYRLALLVSAIVVSIAGYHYFRIFNSWDAAYVLENGVYSLTSEKFNDAYRYVDWLLTVPLLLVETVAVLTLPAKEARPLLIKLTVASVLMIATGYPGEISDDITTRIIWGTVSTIPFAYILYVLWVELSRSLVRQPAAVQTLVRNMRWLLLLSWGVYPIAYLLPMLGVSGTSAAVGVQVGYTIADVLAKPVFGLLVFAIALVKTKADQESSEPHAAIGAAANKSGGSLIS
modifications: all-trans-retinal covalently bound to Lys257 via a protonated Schiff base
notes: Gloeobacter rhodopsin (GR), light-driven proton pump of Gloeobacter violaceus PCC 7421; 33 kDa; Membrane protein in detergent micelles (0.04% DDM) in the oligomerisation experiments; also called GR; wild-type GR; source: E. coli C43(DE3), purified (TALON Co2+ column, Superdex 200) in OG or DDM
binding result [3]: binds

B2: spin-labeled GR-67R1 (natural protein, Gloeobacter violaceus PCC 7421)
chain: B1 chain with G67C
modifications: R1 nitroxide side chain at Cys67; all-trans-retinal bound to Lys257 via a Schiff base
notes: Gloeobacter rhodopsin (GR) of Gloeobacter violaceus PCC 7421 with G67C, spin-labeled at 67; also called spin labeled G67C mutant of GR
stoichiometry N [4]: 5

— publication PMC6677831, “X-ray Crystallographic Structure and Oligomerization of Gloeobacter Rhodopsin” (Scientific Reports, 2019)
